# Measured values from PMC8795569.
# Target: HA-APP (full-length, APP695 spliced isoform) (UniProt P05067)
# Assay: ELISA
substance,measurement,value
MDGA1 MAM-Fc (recombinant MDGA1 MAM domain fused to Fc) (from UniProt Q8NFP4 751-918) (Fc fusion),Kd,41.3 nM
